Test results: publication PMC10796598

Target: synaptobrevin2 (syb2) All ItoA (rat) (UniProt P63045)

## synaptobrevin2 (syb2) All ItoA (from UniProt P63045 1-116) (natural protein)
  mean open-state dwell time (<t (o-obs)>) of single fusion pores, ND5S(All ItoA) on t-SNARE BLM: 36 ms
